# B1: IMPA1 (parent)
# chain: FIGEESVAAGEKSILTDNPTWIID
# Variants of: B1
# Assay: protein stability index of a GFP-peptide fusion (GPS, HEK-293T) (PSI 1-6); higher = more stable
# Settings: c terminus: a fixed tail appended
# 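Note: lentivirally expressed fusions sorted by FACS into six bins by GFP to DsRed ratio, PSI derived from sequencing read proportions per bin multiplied by bin number.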
row,Variant,protein stability index
1,FNGEESVAAGEKSILTDNPTWIID,4.25
2,FEGEESVAAGEKSILTDNPTWIID,4.82
3,FGGEESVAAGEKSILTDNPTWIID,4.24
4,FHGEESVAAGEKSILTDNPTWIID,2.59
5,FSGEESVAAGEKSILTDNPTWIID,3.65
6,FWGEESVAAGEKSILTDNPTWIID,2.74
7,FYGEESVAAGEKSILTDNPTWIID,3.4
8,FPGEESVAAGEKSILTDNPTWIID,3.05
9,FVGEESVAAGEKSILTDNPTWIID,1.1
10,FTGEESVAAGEKSILTDNPTWIID,2.83
11,FAGEESVAAGEKSILTDNPTWIID,2.59
12,FDGEESVAAGEKSILTDNPTWIID,4.79
13,FKGEESVAAGEKSILTDNPTWIID,4.42
14,HIGEESVAAGEKSILTDNPTWIID,4.56
15,QIGEESVAAGEKSILTDNPTWIID,4.87
16,LIGEESVAAGEKSILTDNPTWIID,4.34
17,RIGEESVAAGEKSILTDNPTWIID,4.38
18,VIGEESVAAGEKSILTDNPTWIID,4.52
19,EIGEESVAAGEKSILTDNPTWIID,4.81
20,CIGEESVAAGEKSILTDNPTWIID,4.46
21,AIGEESVAAGEKSILTDNPTWIID,4.65
22,NIGEESVAAGEKSILTDNPTWIID,4.45
23,YIGEESVAAGEKSILTDNPTWIID,2.54
24,SIGEESVAAGEKSILTDNPTWIID,4.96

row,Variant,protein stability index
1,PIGEESVAAGEKSILTDNPTWIID,4.56
2,GIGEESVAAGEKSILTDNPTWIID,4.86
3,MIGEESVAAGEKSILTDNPTWIID,4.6
4,IIGEESVAAGEKSILTDNPTWIID,3.98
5,WIGEESVAAGEKSILTDNPTWIID,3.74
6,TIGEESVAAGEKSILTDNPTWIID,4.76
7,KIGEESVAAGEKSILTDNPTWIID,4.61
8,DIGEESVAAGEKSILTDNPTWIID,5.07
9,FIGEESVGAGEKSILTDNPTWIID,2.46
10,FIGEESVEAGEKSILTDNPTWIID,2.79
11,FIGEESVFAGEKSILTDNPTWIID,1.84
12,FIGEESVCAGEKSILTDNPTWIID,1.55
13,FIGEESVDAGEKSILTDNPTWIID,2.72
14,FIVEESVAAGEKSILTDNPTWIID,2.8
15,FIDEESVAAGEKSILTDNPTWIID,3.27
16,FIREESVAAGEKSILTDNPTWIID,1.64
17,FISEESVAAGEKSILTDNPTWIID,1.89
18,FIYEESVAAGEKSILTDNPTWIID,1.88
19,FIIEESVAAGEKSILTDNPTWIID,1.4
20,FICEESVAAGEKSILTDNPTWIID,1.31
21,FITEESVAAGEKSILTDNPTWIID,1.92
22,FINEESVAAGEKSILTDNPTWIID,1.99
23,FIKEESVAAGEKSILTDNPTWIID,2.17
24,FIHEESVAAGEKSILTDNPTWIID,1.86

row,Variant,protein stability index
1,FIFEESVAAGEKSILTDNPTWIID,1.93
2,FIMEESVAAGEKSILTDNPTWIID,1.78
3,FIEEESVAAGEKSILTDNPTWIID,3.55
4,FIQEESVAAGEKSILTDNPTWIID,2.52
5,FIWEESVAAGEKSILTDNPTWIID,1.59
6,FILEESVAAGEKSILTDNPTWIID,1.6
7,FIAEESVAAGEKSILTDNPTWIID,2.05
8,FIPEESVAAGEKSILTDNPTWIID,1.87
9,FIGEEIVAAGEKSILTDNPTWIID,1.73
10,FIGEEWVAAGEKSILTDNPTWIID,2.53
11,FIGEENVAAGEKSILTDNPTWIID,2.25
12,FIGEECVAAGEKSILTDNPTWIID,1.7
13,FIGEEPVAAGEKSILTDNPTWIID,3.1
14,FIGEETVAAGEKSILTDNPTWIID,2.23
15,FIGEEDVAAGEKSILTDNPTWIID,2.56
16,FIGEEMVAAGEKSILTDNPTWIID,2.07
17,FIGEEFVAAGEKSILTDNPTWIID,1.81
18,FIGEELVAAGEKSILTDNPTWIID,2.24
19,FIGEEEVAAGEKSILTDNPTWIID,3.07
20,FIGEERVAAGEKSILTDNPTWIID,1.51
21,FIGEEQVAAGEKSILTDNPTWIID,2.42
22,FIGEEHVAAGEKSILTDNPTWIID,2.29
23,FIGEEVVAAGEKSILTDNPTWIID,1.7
24,FIGEEKVAAGEKSILTDNPTWIID,1.57

row,Variant,protein stability index
1,FIGEEYVAAGEKSILTDNPTWIID,1.51
2,FIGEEAVAAGEKSILTDNPTWIID,2.01
3,FIGEEGVAAGEKSILTDNPTWIID,2.42
4,FIGEESHAAGEKSILTDNPTWIID,2.06
5,FIGEESNAAGEKSILTDNPTWIID,2.4
6,FIGEESTAAGEKSILTDNPTWIID,2.28
7,FIGEESIAAGEKSILTDNPTWIID,1.92
8,FIGEESWAAGEKSILTDNPTWIID,1.94
9,FIGEESMAAGEKSILTDNPTWIID,1.94
10,FIGEESSAAGEKSILTDNPTWIID,2.17
11,FIGEESAAAGEKSILTDNPTWIID,2.46
12,FIGEESQAAGEKSILTDNPTWIID,2.19
13,FIGEESGAAGEKSILTDNPTWIID,2.15
14,FIGEESLAAGEKSILTDNPTWIID,2.25
15,FIGEESRAAGEKSILTDNPTWIID,1.85
16,FIGEESPAAGEKSILTDNPTWIID,2.19
17,FIGEESFAAGEKSILTDNPTWIID,2.05
18,FIGEESYAAGEKSILTDNPTWIID,2.01
19,FIGEESKAAGEKSILTDNPTWIID,2.53
20,FIGEESDAAGEKSILTDNPTWIID,2.71
21,FIGEESEAAGEKSILTDNPTWIID,3.03
22,FIGEESCAAGEKSILTDNPTWIID,2
